Reference: patent US20200317755A1 (HUMABS BIOMED, published 2020)
Read-outs that look alike come from different tables or passages of the source.

B1: ZKA64 (antibody, V domains shown)
VH: QVQLVQSGAEVKKPGASVKVSCKASGYTFTGYHIDWVRQARGQGLEWMGRINPNSGGTNYAQKFQGRVTMTRDTSISTAYMQLSRLRSDDSAVYYCARMSSSIWGFDHWGQGTLVTVSS
VL: EIVMTQSPATLSVSPGERATLSCRASQSVLINLAWYQQKPGQAPRLLIYGASSRATGIPARFSGSGSGTEFTLTISSLQSEDFAVYYCQQYNDWPPITFGQGTRLEIK
notes: also called EDIII-specific mAb ZKA64
B2: ZKA230 (antibody, V domains shown)
VH: QVQLQESGPGLVKPSETLSLTCAVSGGSISSDYWSWIRQPPGKGLEWIGYIYYSGSTNYNPSLKSRVTISVDTSKNHFSLKLNSVTAADTAVYYCARRRKYDSLWGSFAFDIWGQGTMVTVSS
VL: QSVLTQPPSASGTPGQRVTISCSGSSSNIGGNYVYWYQQLPGTAPKLLICINDHRPSGVPDRFSGSKSGTSASLAISGLQSEDEADYYCATWDDSLGGLVFGGGTKLTVL
notes: also called ZKA230 mAb; NNB mAb ZKA230
B3: ZKA185 (antibody, V domains shown)
VH: EVQLVQSGAEVKKPGESLRISCKGSGYSFTSYWITWVRQMPGKGLEWMAKFDPSDSQTNYSPSFQGHVTISVDKSISTAYLQWSSLKASDTAMYYCARRYCSSSSCYVDNWGQGTLVTIFS
VL: SYELTQPPSVSVSPGQTARITCSGDALPNKFAYWYRQKSGQAPVLVIYEDNKRPSGIPERFSGSSSGTMATLTISGAQVEDEADYHCYSTDSSSNPLGVFGGGTKLTVL
notes: also called ZKA185 IgG; ZKA185 mAb
B4: ZKA185 Fab (Fab, V domains shown)
VH: B3 VH
VL: B3 VL

Tests used:
ZIKV E protein [1] = molecular target: T1, ZIKV E protein (Zika virus, UniProt Q32ZE1 291-694); test: ELISA
T1 construct: domain: envelope protein (E protein); also called Zika virus envelope protein; recombinant ZIKV E protein

ZIKV EDIII [2] = molecular target: T2, ZIKV EDIII (Zika virus, UniProt A0A024B7W1 599-693); test: ELISA
T2 construct: also called domain III of ZIKV E protein; DIII ZI

ZIKV E protein [3] = molecular target: T1, ZIKV E protein; test: ELISA; remark: listed apart in the source
ZIKV EDIII [4] = molecular target: T2, ZIKV EDIII; test: ELISA; remark: listed apart in the source
[5] = molecular target: T3, E protein of ZIKV strain H/PF/2013 (on infectious virus) (Zika virus); test: cell-based or functional assay
[6] = molecular target: T3, E protein of ZIKV strain H/PF/2013 (on …); test: cell-based or functional assay; remark: listed apart in the source
MRS-OPY = MRS-OPY (Zika virus); test: cell-based or functional assay
[7] = molecular target: T3, E protein of ZIKV strain H/PF/2013 (on …); test: cell-based or functional assay; remark: listed apart in the source
[8] = molecular target: T4, Zika virus-like particles (VLP) (Zika virus); test: ELISA
T4 construct: also called ZIKV VLP; ZIKV VLPs

MR766 = MR766 (Zika virus); test: cell-based or functional assay
PV10552 = PV10552 (Zika virus); test: cell-based or functional assay
[9] = molecular target: T3, E protein of ZIKV strain H/PF/2013 (on …); test: cell-based or functional assay; remark: listed apart in the source
[10] = molecular target: T3, E protein of ZIKV strain H/PF/2013 (on …); test: cell-based or functional assay; remark: listed apart in the source
[11] = molecular target: E protein of MARM1 (T335R) (Zika virus); test: cell-based or functional assay
[12] = molecular target: E protein of MARM2 (E370K) (Zika virus); test: cell-based or functional assay
ZIKV EDIII [13] = molecular target: T2, ZIKV EDIII; test: ELISA; remark: listed apart in the source

Row | Binder | EC50 (ZIKV E protein [1]) [µg/mL] | EC50 (ZIKV EDIII [2]) [µg/mL] | EC50 (ZIKV E protein [3]) [µg/mL] | EC50 (ZIKV EDIII [4]) [µg/mL] | IC50, neutralization of ZIKV strain H/PF/2013 on Vero cells (flow cytometry) [5] [µg/mL] | IC50, ZIKV neut [6] [µg/mL] | binding result (ZIKV E protein [1]) | binding result (ZIKV EDIII [2]) | IC50 (read off the curve), neutralisation (MRS-OPY) [nM] | IC50 (read off the curve), neutralisation [7] [nM] | EC50 (read off the curve) [8] [nM] | IC50 (read off the curve), neutralisation (MR766) [nM] | IC50 (read off the curve), neutralisation (PV10552) [nM] | IC50 (read off the curve), neutralisation [9] [nM] | IC50 (read off the curve), neutralisation [10] [nM] | IC50 (read off the curve), neutralisation [11] [nM] | IC50 (read off the curve), neutralisation [12] [nM] | binding result (ZIKV EDIII [13])
1 | B1 | 0.065 | 0.161 | 0.0651 | 0.161 | 0.093 | 0.155 | – | – | – | – | – | – | – | – | – | – | – | –
2 | B2 | – | – | – | – | 0.01 | 0.01 | no binding | no binding | ~0.08 | ~0.02 | – | – | – | – | – | – | – | –
3 | B3 | – | – | – | – | – | 0.013 | – | no binding | ~0.08 | ~0.01 | ~0.03 | ~0.03 | ~0.06 | ~0.1 | ~0.1 | ~0.1 | ~0.1 | –
4 | B4 | – | – | – | – | – | – | – | – | – | ~0.8 | ~0.03 | – | – | – | – | – | – | no binding (tested: 10 nM)
